Assay results: patent publication US20200148774A1 (Genentech, published 2020)

T1: cynomolgus CLL-1 on cells (recombinant on HEK293AD cells) (cynomolgus monkey)
T1 construct: also called 293AD/cynoCLL-1; 293AD/cynoCLL1
T1 chain: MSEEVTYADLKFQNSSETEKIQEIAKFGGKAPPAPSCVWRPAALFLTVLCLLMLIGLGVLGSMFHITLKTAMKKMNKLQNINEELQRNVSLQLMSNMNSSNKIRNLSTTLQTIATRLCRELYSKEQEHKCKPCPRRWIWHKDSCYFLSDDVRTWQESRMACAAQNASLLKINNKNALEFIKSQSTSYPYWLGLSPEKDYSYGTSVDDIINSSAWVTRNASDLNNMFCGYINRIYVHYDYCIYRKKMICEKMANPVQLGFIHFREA

T2: human CLL-1 on cells (endogenous on HL-60, EOL-1 and other AML cell lines and CD14+ monocytes); recombinant on … (human, UniProt Q5QGZ9 1-265)
T2 construct: also called 293AD/huCLL-1; tumor-derived CLL-1
T2 sequence: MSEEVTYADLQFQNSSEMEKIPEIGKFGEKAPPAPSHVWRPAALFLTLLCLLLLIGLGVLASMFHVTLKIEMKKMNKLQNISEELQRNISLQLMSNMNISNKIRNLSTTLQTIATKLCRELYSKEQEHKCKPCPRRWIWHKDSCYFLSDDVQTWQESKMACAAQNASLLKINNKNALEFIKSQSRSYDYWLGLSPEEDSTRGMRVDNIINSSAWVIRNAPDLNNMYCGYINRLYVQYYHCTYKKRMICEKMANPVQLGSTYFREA

T3: recombinant human CLL-1 extracellular domain (ECD, amino acids 65-265) fused to an N-terminal Flag (human, UniProt Q5QGZ9 65-265)
T3 construct: The construct and the K244Q SNP are stated for the immunogen; they are not written as a piece; also called huCLL-1-Flag; huCLL-1
T3 chain: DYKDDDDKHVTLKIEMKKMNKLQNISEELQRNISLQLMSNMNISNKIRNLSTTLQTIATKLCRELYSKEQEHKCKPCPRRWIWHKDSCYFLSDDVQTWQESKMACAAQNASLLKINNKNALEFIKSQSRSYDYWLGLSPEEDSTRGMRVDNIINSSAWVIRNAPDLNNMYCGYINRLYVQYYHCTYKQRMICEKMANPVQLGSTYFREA

T4: recombinant cynomolgus CLL-1 extracellular domain (ECD, amino acids 65-265) fused to an N-terminal Flag (cynomolgus monkey)
T4 construct: Construct stated for the immunogen; also called CynoCLL-1 Flag; cynoCLL-1
T4 chain: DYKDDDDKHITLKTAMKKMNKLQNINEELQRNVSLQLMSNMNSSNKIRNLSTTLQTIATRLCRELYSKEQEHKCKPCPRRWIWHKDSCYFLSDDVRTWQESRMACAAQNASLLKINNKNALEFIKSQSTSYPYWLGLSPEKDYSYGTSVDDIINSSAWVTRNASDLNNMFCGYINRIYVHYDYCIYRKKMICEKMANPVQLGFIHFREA


Legend:
[1] = target: T1, cynomolgus CLL-1 on cells (recombinant …); assay: FACS, stable cell line expressing recombinant cyno CLL-1
[2] = target: T2, human CLL-1 on cells (endogenous on …); assay: FACS, stable cell line expressing recombinant hu CLL-1 and AML tumor cell lines
[3] = target: T5, hCD3ε (human, UniProt P07766 23-126); assay: SPR (Biacore); target printed only as hCD3; format not stated, not the Fab measurement
T5 construct: Also used for the value printed only as 'hCD3 (0.05 nM'); also called human CD3ε polypeptide

[4] = target: T5, hCD3ε; assay: SPR (Biacore), Fab
[5] = target: T5, hCD3ε; assay: SPR (Biacore), Fab; Fab
[6] = target: T2, human CLL-1 on cells (endogenous on …); assay: Scatchard (125I-antibody competition), HL-60 cells
Description: (§1) Anti-CLL-1 antibodies were [I¹²⁵] labeled using the indirect lodogen method. […] Competition assay mixtures of 50 μL volume containing a fixed concentration of [1¹²⁵] labeled antibody and decreasing concentrations of serially diluted, unlabeled antibody were placed into 96-well plates. HEK293AD cells stably expressing recombinant hu or cynoCLL-1 or HL-60 tumor cells expressing endogenous CLL-1 were cultured in growth media at 37° C. in 5% CO₂. Cells were detached from the flask using Sigma Cell Dissociation Solution and were washed with binding buffer, which consisted of Dulbecco's Modified Eagle Medium (DMEM) with 1% bovine serum albumin (BSA), […] and 0.1% sodium azide. The washed cells were added to the 96 well plates at a density of 100,000 cells in 0.2 mL of binding buffer. […] The final concentration of the unlabeled antibody in the competition assay ranged from 1000 nM through ten 2-fold dilution steps to a 0 nM buffer-only assay. Competition assays were carried out in triplicate. Competition assays were incubated for 2 hours at room temperature. […] The filters were counted on a Wallac Wizard 1470 gamma counter (PerkinElmer Life and Analytical Sciences Inc.; Wellesley, Mass.). The binding data was evaluated using NewLigand software (Genentech), which uses the fitting algorithm of Munson and Robard to determine the binding affinity of the antibody (Munson and Robard 1980).

[7] = target: T2, human CLL-1 on cells (endogenous on …); assay: Scatchard (125I-antibody competition), 293AD/huCLL-1 cells
Description: as §1

[8] = target: T1, cynomolgus CLL-1 on cells (recombinant …); assay: Scatchard (125I-antibody competition), 293AD/cynoCLL-1 cells
Description: as §1

[9] = target: T3, recombinant human CLL-1 extracellular …; assay: SPR (Biacore T200), IgG captured by anti-human Fc, human CLL-1 as analyte
Description: The binding affinity of the antibodies in this section was determined by BIAcore™ T200 Format. Briefly, BIAcore™ research grade CM5 chips were activated with 1-ethyl-3-(3-dimethylaminopropyl) carbodiimide (EDC) and N-hydroxysuccinimide (NHS) reagents according to the supplier's instructions. Goat anti-human Fc IgGs were coupled to the chips to achieve approximately 10,000 response units (RU) in each flow cell. Unreacted coupling groups were blocked with 1M ethanolamine. For kinetics measurements, antibodies were captured to achieve approximately 300 RU. Three-fold serial dilutions of human CLL-1 was injected in HBS-P buffer (0.01M HEPES pH7.4, 0.15M NaCl, 0.005% surfactant P20) at 25° C. with a flow rate of 30 μl/min. Association rates (kon) and dissociation rates (koff) were calculated using a 1:1 Langmuir binding model (BIAcore™ T200 Evaluation Software version 2.0). The equilibrium dissociation constant (Kd) was calculated as the ratio koff/kon.

[10] = target: T3, recombinant human CLL-1 extracellular …; assay: SPR (Biacore), chimeric IgG captured by anti-human IgG, CLL-1 as analyte
Description: (§2) The chimeric anti-CLL-1 human IgG were captured by mouse anti-human IgG coated on the CM5 sensor chip. […] Association rates (kon) and dissociation rates (koff) were calculated using a simple one-to-one Langmuir binding model. The equilibrium dissociation constant (KD) was calculated as the ratio koff/kon.

[11] = target: T4, recombinant cynomolgus CLL-1 …; assay: as above
Description: as §2

T5 sequence (P07766 23-126): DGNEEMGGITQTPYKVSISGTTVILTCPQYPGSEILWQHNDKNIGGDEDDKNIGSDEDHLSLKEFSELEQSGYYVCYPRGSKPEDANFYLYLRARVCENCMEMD

Binder	binding result [1]	binding result [2]	Kd [6] [nM]	Kd [7] [nM]	Kd [8] [nM]	Kd [9] [nM]	Kd [10] [nM]	koff [10] [s⁻¹]	kon [10] [M⁻¹ s⁻¹]	Kd [11] [nM]	koff [11] [s⁻¹]	kon [11] [M⁻¹ s⁻¹]	also measured
m28H12 (antibody, V domains shown, murine monoclonal antibody; also called murine 28H12) VH: QVQLQQSGAELVKPGASVKLSCTASGFNIKDTYMHWVKQRPEQGLEWIGRIDPANGDTDYDPKFQGKATVTADTSSNTAYLQLSSLTSEDTAVYYCTISGPPYYVMDYWGQGTSVTVSS VL: DIQMTQSPASLAVSLGQRATISCRASQSVSSSSYSYMHWYQQKPGQPPKLLIKYASNLESGVPARFSGRGSGTDFTLNIHPVEEEDTATYYCQHSWEIPYTFGGGTRLEIK	binds	binds	–	–	–	–	–	–	–	–	–	–	–
38E4v11 (antibody, V domains shown, also called h38E4v11) VH: EVQLVQSGAEVKKPGASVKVSCKASGFTFTSYYIHWVRQAPGQGLEWIGWIYPENDNTKYNEKFKDRVTITADTSTSTAYLELSSLRSEDTAVYYCARDGYSRYYFDYWGQGTLVTVSS VL: DIVMTQSPDSLAVSLGERATINCKSSQSLLNSRTRKNYLAWYQQKPGQSPKLLIYWTSTRKSGVPDRFSGSGSGTDFTLTISSLQAEDVAVYYCTQSFILRTFGQGTKVEIK	–	–	–	–	–	–	–	–	–	–	–	–	Kd [3]: 0.05 nM
38E4v11 Fab (Fab, V domains shown, Fab; also called 38E4v11 (Fab Biacore measurements)) VH: EVQLVQSGAEVKKPGASVKVSCKASGFTFTSYYIHWVRQAPGQGLEWIGWIYPENDNTKYNEKFKDRVTITADTSTSTAYLELSSLRSEDTAVYYCARDGYSRYYFDYWGQGTLVTVSS VL: DIVMTQSPDSLAVSLGERATINCKSSQSLLNSRTRKNYLAWYQQKPGQSPKLLIYWTSTRKSGVPDRFSGSGSGTDFTLTISSLQAEDVAVYYCTQSFILRTFGQGTKVEIK	–	–	–	–	–	–	–	–	–	–	–	–	Kd [4]: 0.032 nM; koff [4]: 0.0016 s⁻¹; kon [5]: 5e+07 M⁻¹ s⁻¹
ch6E7 (antibody, V domains shown, chimeric version of m6E7, human IgG; also called chimeric 6E7; Chimeric 6E7) VH: QVQLQQSGPELVKPGASVKISCKASGYSFTDYYMHWVKQSHIKSLEWIGRINPYNGAAFYSQNFKDKASLTVDKSSSTAYMELHSLTSEDSAVYYCAIERGADLEGYAMDYWGQGTSVTVSS VL: DIVLTQSPSSLIVSLGQRATISCRASQSVSTSSYNYMHWYQQKPGQPPKLLLKYASNLESGVPARFSGSGSGTDFTLNIHPVEEEDTATYYCQHSWEIPLTFGAGTKLEIK	–	–	0.65	0.8	1	0.959	0.9	0.00044	460000	1.1	0.00046	400000	–
ch21C9 (antibody, V domains shown, chimeric version of m21C9, human IgG; also called chimeric 21C9; Chimeric 21C9) VH: EVQLQQSGPELVKPGASVKMSCKASGYTFTDYYLDWVKQSHGESFEWIGRVNPYNGGTIYNQKFKGKATLTVDKSSSTAYMDLNSLTSEDSAVYYCARDHYRYDPLLDYWGQGTTLTVSS VL: DIQMTQSHKFMSTSVGDRVSITCKASQDVSTAVAWFQQKPGQSPKLLIYSPSYRYTGVPDRFTGSGSGTDFTFTISSVQAEDLAVYYCQQLYSTPYTFGGGTKLEIK	–	–	0.45	0.59	1.2	8.62	9.7	0.0024	250000	7.1	0.0012	160000	–
m20B1 (antibody, V domains shown, murine monoclonal antibody; also called murine 20B1) VH: EVQLQQSGPELVKPGALVKISCKASGYTFTSYDINWLKQRPGQGLEWIGWIYPGDGTTEYNERFKGKATLTADKSSSTAYLQLSSLTSENSAVYFCARSYDYDYAMDYWGQGTSVTVSS VL: DIVLTQSPAIMSASPGEKVTMTCSASSSISYMYWYQQKPGTSPKRWIYDTSKLASGVPARFSGSGSGTSYSLTISSMEAEDAATYYCHQRSSWTFGGGTKLEIK	binds	binds	–	–	–	–	–	–	–	–	–	–	–
